Measurements taken from article PMC10497414.
Read-outs that look alike come from different tables or passages of the source.

Columns and labels:
[1] = biological target: recombinant human CD123 (Homo sapiens) (UniProt P26951); experiment: SPR; Biacore T200, CM5 chip, 25 °C; CD123-NKCE (0.06 µg/ml) captured on anti-human Fc chip (human antibody capture kit); NKp46 or CD123 injected at 1.56 to 100 nM in HBS-EP+; 1:1 binding model with mass transport limitation; monovalent KD
[2] = biological target: human NKp46 (Gln22-Asn255) (Homo sapiens) (UniProt O76036); experiment: as above
[3] = biological target: human NKp46 (Gln22-Asn255) (Homo sapiens) (UniProt O76036)
Target sequence in this assay (O76036 22-255): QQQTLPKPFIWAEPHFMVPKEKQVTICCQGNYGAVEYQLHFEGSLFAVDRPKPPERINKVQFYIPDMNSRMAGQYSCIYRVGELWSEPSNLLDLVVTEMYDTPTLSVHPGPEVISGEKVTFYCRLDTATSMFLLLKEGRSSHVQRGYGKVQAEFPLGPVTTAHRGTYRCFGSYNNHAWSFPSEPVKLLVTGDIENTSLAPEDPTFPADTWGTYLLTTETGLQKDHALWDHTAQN

[4] = biological target: human CD32b (human FcγRIIB) (human) (UniProt P31994); experiment: SPR
human CD32b (human FcγRIIB) (human), sequence (P31994 43-310): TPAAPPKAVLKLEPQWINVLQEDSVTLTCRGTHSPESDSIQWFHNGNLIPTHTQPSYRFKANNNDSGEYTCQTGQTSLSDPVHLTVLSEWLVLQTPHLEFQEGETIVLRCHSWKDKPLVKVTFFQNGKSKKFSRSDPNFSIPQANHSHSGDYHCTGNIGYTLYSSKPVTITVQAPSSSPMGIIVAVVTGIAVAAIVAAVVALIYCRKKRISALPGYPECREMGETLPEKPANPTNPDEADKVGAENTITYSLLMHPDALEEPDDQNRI

[5] = biological target: cynomolgus FcRn (cynomolgus) (UniProt Q8SPV9); experiment: SPR
cynomolgus FcRn (cynomolgus), sequence (Q8SPV9 24-365): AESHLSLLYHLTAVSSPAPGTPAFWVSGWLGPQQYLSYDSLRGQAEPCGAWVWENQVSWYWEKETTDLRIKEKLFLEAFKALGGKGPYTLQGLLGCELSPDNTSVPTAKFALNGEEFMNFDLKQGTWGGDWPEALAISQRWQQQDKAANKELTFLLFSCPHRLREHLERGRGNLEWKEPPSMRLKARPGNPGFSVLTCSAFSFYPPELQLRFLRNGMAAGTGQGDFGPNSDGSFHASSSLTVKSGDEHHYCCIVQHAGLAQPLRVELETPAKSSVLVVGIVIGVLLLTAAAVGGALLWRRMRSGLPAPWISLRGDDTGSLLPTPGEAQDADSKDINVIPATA

[6] = biological target: cynomolgus CD16 (cynomolgus) (UniProt Q8SPW2); experiment: SPR
cynomolgus CD16 (cynomolgus), sequence (Q8SPW2 17-254): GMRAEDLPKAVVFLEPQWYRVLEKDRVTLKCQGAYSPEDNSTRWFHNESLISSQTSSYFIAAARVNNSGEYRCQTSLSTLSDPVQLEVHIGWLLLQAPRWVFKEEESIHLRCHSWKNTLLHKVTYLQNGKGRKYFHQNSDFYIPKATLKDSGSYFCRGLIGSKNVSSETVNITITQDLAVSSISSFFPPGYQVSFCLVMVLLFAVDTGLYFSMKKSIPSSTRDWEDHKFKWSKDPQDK

[7] = biological target: human CD16a (human FcγRIIIA), F isoform (human) (UniProt P08637); experiment: SPR
human CD16a (human FcγRIIIA), F isoform (human), sequence (P08637 17-208): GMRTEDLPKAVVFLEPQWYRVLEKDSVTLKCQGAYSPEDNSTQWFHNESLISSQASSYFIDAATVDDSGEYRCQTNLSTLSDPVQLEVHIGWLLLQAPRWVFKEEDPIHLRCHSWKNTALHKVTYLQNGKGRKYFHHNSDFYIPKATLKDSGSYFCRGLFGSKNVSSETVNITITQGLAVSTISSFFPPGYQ

[8] = biological target: cynomolgus CD32a (cynomolgus) (UniProt Q8SPW4); experiment: SPR
[9] = biological target: cynomolgus CD64 (cynomolgus) (UniProt Q8SPW5); experiment: SPR
[10] = biological target: human CD16b (human FcγRIIIB) (human) (UniProt O75015); experiment: SPR
human CD16b (human FcγRIIIB) (human), sequence (O75015 17-200): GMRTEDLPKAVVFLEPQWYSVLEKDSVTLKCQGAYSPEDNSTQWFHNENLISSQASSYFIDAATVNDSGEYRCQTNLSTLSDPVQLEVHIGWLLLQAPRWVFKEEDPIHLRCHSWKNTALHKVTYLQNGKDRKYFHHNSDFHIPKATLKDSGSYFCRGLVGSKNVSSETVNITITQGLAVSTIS

[11] = biological target: human CD32a (human FcγRIIA) (human) (UniProt P12318); experiment: SPR
human CD32a (human FcγRIIA) (human), sequence (P12318 34-317): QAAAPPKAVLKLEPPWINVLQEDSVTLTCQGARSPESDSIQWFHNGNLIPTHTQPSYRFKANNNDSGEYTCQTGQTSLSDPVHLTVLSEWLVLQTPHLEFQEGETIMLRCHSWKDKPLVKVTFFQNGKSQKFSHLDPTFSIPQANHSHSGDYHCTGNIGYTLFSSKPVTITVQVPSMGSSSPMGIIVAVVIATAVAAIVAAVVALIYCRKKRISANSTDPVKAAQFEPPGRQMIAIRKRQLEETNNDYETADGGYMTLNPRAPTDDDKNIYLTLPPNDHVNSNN

[12] = biological target: human CD16a (human FcγRIIIA), V isoform (human) (UniProt P08637); experiment: SPR
human CD16a (human FcγRIIIA), V isoform (human), sequence (P08637 17-208 F176V): as the sequence (P08637 17-208) above, with F160V counted along it

[13] = biological target: human CD64 (human FcγRI) (human) (UniProt P12314); experiment: SPR
human CD64 (human FcγRI) (human), sequence (P12314 16-374): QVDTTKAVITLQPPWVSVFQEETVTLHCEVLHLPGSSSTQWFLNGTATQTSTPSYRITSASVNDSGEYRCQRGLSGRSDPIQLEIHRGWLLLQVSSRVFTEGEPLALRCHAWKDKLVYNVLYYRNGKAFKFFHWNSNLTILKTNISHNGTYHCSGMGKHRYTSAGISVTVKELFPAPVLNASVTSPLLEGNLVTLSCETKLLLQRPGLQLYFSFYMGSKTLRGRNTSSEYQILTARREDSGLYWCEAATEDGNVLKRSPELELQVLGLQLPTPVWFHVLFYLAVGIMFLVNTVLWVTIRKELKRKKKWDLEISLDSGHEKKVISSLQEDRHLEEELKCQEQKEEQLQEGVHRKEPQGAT

[14] = biological target: cynomolgus CD32b (cynomolgus) (UniProt Q8SPW3); experiment: SPR
[15] = biological target: cynomolgus CD123; experiment: SPR; conditions: bispecific antibody
[16] = biological target: human neonatal Fc receptor (human) (UniProt P55899); experiment: SPR; conditions: bispecific antibody
human neonatal Fc receptor (human), sequence (P55899 24-365): as the sequence (Q8SPV9 24-365) above, with D39N, Q44E, S99G, G189S, N190S, M217L, T269S, S319V, S332L, I335V counted along it

[17] = biological target: cynomolgus NKp46 (Gln17-Asn254) (cynomolgus) (UniProt Q95JB9); experiment: SPR; conditions: bispecific antibody
cynomolgus NKp46 (Gln17-Asn254) (cynomolgus), sequence (Q95JB9 17-254): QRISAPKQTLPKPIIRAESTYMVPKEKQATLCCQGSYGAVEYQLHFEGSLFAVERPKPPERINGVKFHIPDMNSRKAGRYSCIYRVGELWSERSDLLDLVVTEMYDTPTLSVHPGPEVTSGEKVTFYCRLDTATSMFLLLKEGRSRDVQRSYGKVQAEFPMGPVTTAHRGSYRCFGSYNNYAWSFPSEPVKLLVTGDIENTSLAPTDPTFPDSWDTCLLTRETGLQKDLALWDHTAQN

Question: What does the source list for “CD123-NKCE (trifunctional NKp46-CD16a-NK cell engager targeting CD123) (bispecific antibody)”?
Answer: Kd [1]: 0.4 nM; Kd [2]: 16.6 nM; NK cell-mediated cytotoxicity (Cr-51 release) against MOLM-13 cells with NK cells from healthy donors, geometric mean EC50; NKp46 and CD16a coengaged [3]: 0.0042 nM; NK cell-mediated cytotoxicity (Cr-51 release) against MOLM-13 cells with NK cells from healthy donors, mean observed maximum specific lysis; NKp46 and CD16a coengaged [3]: 71%

Question: With Human IgG1 control as the substance, how does the Kd [4] read?
Answer: Its Kd is 4230 nM.

Question: And the Kd [5]?
Answer: Its Kd is 237 nM.

Question: And the Kd [6]?
Answer: The Kd was 580 nM.

Question: What about the Kd [7] of the same substance?
Answer: The Kd was 2820 nM.

Question: What about the Kd [8] of the same substance?
Answer: The Kd was 6340 nM.

Question: And the Kd [9]?
Answer: The Kd was 18 nM.

Question: And the Kd [10]?
Answer: Its Kd is 7540 nM.

Question: And the Kd [11]?
Answer: Its Kd is 1570 nM.

Question: What about the Kd [12] of the same substance?
Answer: Its Kd is 575 nM.

Question: What about the Kd [13] of the same substance?
Answer: Its Kd is 0.2 nM.

Question: And the Kd [14]?
Answer: The Kd was 2320 nM.

Question: Which Kd ([4]; bispecific antibody) does the source give for “CD123-NKCE (trifunctional NKp46-CD16a-NK cell engager targeting CD123)” here?
Answer: Its Kd is 3200 nM.

Question: What about the Kd ([5]; bispecific antibody) of the same substance?
Answer: Its Kd is 282 nM.

Question: And the Kd ([6]; bispecific antibody)?
Answer: Its Kd is 466 nM.

Question: What about the Kd [15] of the same substance?
Answer: Its Kd is 1.23 nM.

Question: And the Kd [16]?
Answer: The Kd was 109 nM.

Question: What about the Kd [17] of the same substance?
Answer: The Kd was 29 nM.

Question: And the Kd ([7]; bispecific antibody)?
Answer: Its Kd is 2610 nM.

Question: And the Kd ([8]; bispecific antibody)?
Answer: The Kd was 5180 nM.

Question: What about the Kd ([9]; bispecific antibody) of the same substance?
Answer: Its Kd is 12 nM.

Question: And the Kd ([10]; bispecific antibody)?
Answer: The Kd was 6690 nM.

Question: And the Kd ([11]; bispecific antibody)?
Answer: The Kd was 1220 nM.

Question: And the Kd ([12]; bispecific antibody)?
Answer: Its Kd is 462 nM.

Question: And the Kd ([13]; bispecific antibody)?
Answer: Its Kd is 0.2 nM.

Question: What about the Kd ([14]; bispecific antibody) of the same substance?
Answer: Its Kd is 1890 nM.
